# From the MegaScale stability set (Tsuboyama et al. 2023)
# B1: EEHEE_rd3_0130 (parent)
# chain: TKIIVNGKTFTAPTEEEAQKIAEKLAKKAGLTVHKKNGTFELK
# Variants of: B1
# Test: folding stability dG (cDNA display proteolysis); higher = more stable
# Conditions: PBS, room temperature
row,Variant,folding stability dG [kcal/mol]
1,TKIIVNGKTFTAETEEEAQKIAEKLAKKAGLTVHKKNGTFELK,0.598
2,TKIIVNGKTFTANTEEEAQKIAEKLAKKAGLTVHKKNGTFELK,0.67
3,TKIIVNGKTFTAQTEEEAQKIAEKLAKKAGLTVHKKNGTFELK,0.651
4,TKIIVNGKTFTAWTEEEAQKIAEKLAKKAGLTVHKKNGTFELK,0.532
5,TKIIVEGKTFTAPTEEEAQKIAEKLAKKAGLTVHKKNGTFELK,0.325
6,TKIIVIGKTFTAPTEEEAQKIAEKLAKKAGLTVHKKNGTFELK,0.222
7,TKIIVDGKTFTAPTEEEAQKIAEKLAKKAGLTVHKKNGTFELK,0.319
8,TKIIVNGKTFTAPTEEEAQKIAEKLAKKAGLYVHKKNGTFELK,0.023
9,TKIIVNGKTFTAPTEEEAQKIAEKLAKKAGLFVHKKNGTFELK,0.022
10,TKIIVNGKTFTAPTEEEAQKIAEKLAKKAGLLVHKKNGTFELK,0.291
11,TKIIVNGKTFTAPTEQEAQKIAEKLAKKAGLTVHKKNGTFELK,0.827
12,TKIIVNGKTFTAPTELEAQKIAEKLAKKAGLTVHKKNGTFELK,0.722
13,TKIIVNGKTFTAPTEMEAQKIAEKLAKKAGLTVHKKNGTFELK,0.821
14,TKIIVNGKTFTAPTEEEAQKIAEKLAKKAGLTVHKKNGTFEHK,0.251
15,TKIIVNGKTFTAPTEEEAQKIAEKLAKKAGLTVHKKNGTFEWK,0.069
16,TKIIVNGKTFTAPTEEEAQKIAEKLAKKAGLTVHKKNGTFEQK,0.021
17,TKIIVNGKTFTAPTEEEAQKIAEKLAKKAGLTVHKKNGTFESK,0.186
18,TKIIVNGKTFTAPTEEEAQKIAERLAKKAGLTVHKKNGTFELK,1.08
19,TKIIVNGKTFTAPTEEEAQKIAEYLAKKAGLTVHKKNGTFELK,1.64
20,TKIIVNGKTFTAPTEEEAQKIAENLAKKAGLTVHKKNGTFELK,0.76

row,Variant,folding stability dG [kcal/mol]
1,TKIIVNGKTFTAPTEEEAQKIAEQLAKKAGLTVHKKNGTFELK,0.873
2,TKIIVNGKTFTAPTEEEAQKIAEHLAKKAGLTVHKKNGTFELK,0.996
3,TKIIVNGKTFTAPTEEEAQKIAEKLAKKAGLTVHKKNGTMELK,0.218
4,TKIKVNGKTFTAPTEEEAQKIAEKLAKKAGLTVHKKNGTFELK,0.465
5,TKIWVNGKTFTAPTEEEAQKIAEKLAKKAGLTVHKKNGTFELK,0.365
6,TKIDVNGKTFTAPTEEEAQKIAEKLAKKAGLTVHKKNGTFELK,-0.441
7,TKIVVNGKTFTAPTEEEAQKIAEKLAKKAGLTVHKKNGTFELK,0.695
8,TKIIVNGKTFTAPTEEEAQKIAEKLAKKAGLTSHKKNGTFELK,-0.023
9,TKIIVNGKTFTAPTEEEAQKIAEKLAKKAGLTGHKKNGTFELK,-0.128
10,TKIIVNGKTFTAPTEEEAQKIAEKLAKKAGLTRHKKNGTFELK,-0.007
11,TKIIVNGKTFTAPTREEAQKIAEKLAKKAGLTVHKKNGTFELK,0.366
12,TKIIVNGKTFTAPTEEEAQKIAEKLAKKAGYTVHKKNGTFELK,0.657
13,TKIIVNGKTFTAPTEEEAQKIAEKLAKKAGHTVHKKNGTFELK,-0.13
14,TKIIVNGKTFTAPTEEEAQKIAEKLAKKAGNTVHKKNGTFELK,-0.814
15,TKIIVNGKTFTAPTEEEAQKIAEKLAKKAGCTVHKKNGTFELK,-0.1
16,TKIIVNGKTFTAPTEEEAQKIAEKLAKKAGWTVHKKNGTFELK,0.742
17,TAIIVNGKTFTAPTEEEAQKIAEKLAKKAGLTVHKKNGTFELK,0.458
18,TDIIVNGKTFTAPTEEEAQKIAEKLAKKAGLTVHKKNGTFELK,0.156
19,TMIIVNGKTFTAPTEEEAQKIAEKLAKKAGLTVHKKNGTFELK,0.746
20,TKIIVNGKTFTAPTEEEAQKIAEKLACKAGLTVHKKNGTFELK,1.03

row,Variant,folding stability dG [kcal/mol]
1,TKIIVNGKTFTAPTEEEAQKIAEKLARKAGLTVHKKNGTFELK,0.991
2,TKIIVNGKTFTAPTEEEAQKIAEKLASKAGLTVHKKNGTFELK,0.587
3,TKIIVNGKTFTAPTEEEAQKIAEKLALKAGLTVHKKNGTFELK,0.834
4,TKIIVNGKTFTAPTEEEAQKIAEKLANKAGLTVHKKNGTFELK,0.413
5,TKIIVNGKTFTAPTEEEAQKIAEKLSKKAGLTVHKKNGTFELK,0.1
6,TKIIVNGKTFTAPTEEEAQKIAEKLIKKAGLTVHKKNGTFELK,-0.198
7,TKIIVNGKTFTAPTEEEAQKIAEKLRKKAGLTVHKKNGTFELK,-0.166
8,TKIIVNGKTFTAPTEEEAQKIAEKLDKKAGLTVHKKNGTFELK,-0.815
9,TKIIVNGKTFTAPTEEEAQKIAEKLHKKAGLTVHKKNGTFELK,-0.447
10,GKIIVNGKTFTAPTEEEAQKIAEKLAKKAGLTVHKKNGTFELK,0.627
11,FKIIVNGKTFTAPTEEEAQKIAEKLAKKAGLTVHKKNGTFELK,2.15
12,WKIIVNGKTFTAPTEEEAQKIAEKLAKKAGLTVHKKNGTFELK,2.99
13,NKIIVNGKTFTAPTEEEAQKIAEKLAKKAGLTVHKKNGTFELK,0.378
14,CKIIVNGKTFTAPTEEEAQKIAEKLAKKAGLTVHKKNGTFELK,0.97
15,TKIIVNGKTFTAPTEEEAQKIAEKLAKKAGLTVHKKNGCFELK,1.17
16,TKIIVNGKTFTAPTEEEAQKIAEKLAKKAGLTVHKKNGDFELK,0.863
17,TKIIVNGKTFTAPTEEEAQKIAEKLAKKAGLTVHKKNGYFELK,1.57
18,TKIIVNGKTFTAPTEEEAQKIAEKLAKKAGLTVHKKNGIFELK,1.44
19,TKIIVNGKTFTAPTEEEAQKIAEKVAKKAGLTVHKKNGTFELK,0.245
